Test results published in US20260097113A1 (Pfizer, published 2026).

How the values were obtained:
[1] = target: RSV A + RSV B bivalent composition (RSV subtype A; RSV subtype B); assay: AM14 Fab titration by SEC; Low-Fast cycle; 3 M 25°C (second value)
[2] = target: RSV A + RSV B bivalent composition (RSV subtype A; RSV subtype B); assay: AM14 Fab titration by SEC; Low-Fast cycle; 8 M 40°C
[3] = target: RSV A + RSV B bivalent composition (RSV subtype A; RSV subtype B); assay: AM14 Fab titration by SEC; High-Slow 1 cycle; T0
[4] = target: RSV A + RSV B bivalent composition (RSV subtype A; RSV subtype B); assay: AM14 Fab titration by SEC; Target cycle; 1 M 40°C (second value)
[5] = target: RSV A + RSV B bivalent composition (RSV subtype A; RSV subtype B); assay: AM14 Fab titration by SEC; High-Slow 2 cycle; 1 M 2-8°C
[6] = target: RSV A + RSV B bivalent composition (RSV subtype A; RSV subtype B); assay: AM14 Fab titration by SEC; composition of Table 14; Annealing Temp Aggressive cycle
[7] = target: RSV A + RSV B bivalent composition (RSV subtype A; RSV subtype B); assay: AM14 Fab titration by SEC; Target cycle; 1 M 25°C
[8] = target: RSV A + RSV B bivalent composition (RSV subtype A; RSV subtype B); assay: AM14 Fab titration by SEC; High-Slow 2 cycle; 1 M 40°C (second value)
[9] = target: RSV A + RSV B bivalent composition (RSV subtype A; RSV subtype B); assay: AM14 Fab titration by SEC; High-Slow 1 cycle; 8 M 40°C
[10] = target: RSV A + RSV B bivalent composition (RSV subtype A; RSV subtype B); assay: AM14 Fab titration by SEC; High-Slow 1 cycle; 3 M 2-8°C
[11] = target: RSV A + RSV B bivalent composition (RSV subtype A; RSV subtype B); assay: AM14 Fab titration by SEC; composition of Table 17; Pre-lyo Prep 2, T0 (second value)
[12] = target: RSV A + RSV B bivalent composition (RSV subtype A; RSV subtype B); assay: AM14 Fab titration by SEC; composition of Table 14; Cumulative Aggressive (High-Slow) cycle
[13] = target: T1, RSV F protein of subtype A comprising a polypeptide of SEQ ID NO: 1 and a polypeptide of SEQ ID NO: 2 (RSV subtype A, UniProt P11209 137-513; P03420 26-109); assay: AM14 ELISA; F4 (pH 6, 50 mM NaCl, 4.5% sucrose); 1 wk 5°C
T1 construct: Stabilized prefusion F trimer made of three F2-F1 heterodimers; Produced recombinantly in CHO cells; also called RSV A; RSVA
T1 chain 1: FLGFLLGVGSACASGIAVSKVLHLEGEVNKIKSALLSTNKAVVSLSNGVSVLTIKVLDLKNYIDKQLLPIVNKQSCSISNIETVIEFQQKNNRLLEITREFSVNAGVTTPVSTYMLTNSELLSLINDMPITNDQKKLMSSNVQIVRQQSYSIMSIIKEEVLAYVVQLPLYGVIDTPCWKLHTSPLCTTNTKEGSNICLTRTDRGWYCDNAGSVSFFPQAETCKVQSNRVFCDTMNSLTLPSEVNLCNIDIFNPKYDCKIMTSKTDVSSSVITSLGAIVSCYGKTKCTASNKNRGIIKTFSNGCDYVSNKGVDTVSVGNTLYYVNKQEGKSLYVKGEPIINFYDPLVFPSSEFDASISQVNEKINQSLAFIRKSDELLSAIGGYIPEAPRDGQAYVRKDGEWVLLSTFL
T1 chain 2: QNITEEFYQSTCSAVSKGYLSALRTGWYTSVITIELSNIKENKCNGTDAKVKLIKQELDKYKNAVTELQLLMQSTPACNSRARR

[14] = target: T1, RSV F protein of subtype A comprising a …; assay: AM14 ELISA; F6 (pH 7, 0 mM NaCl, 4.5% sucrose); T0
[15] = target: T1, RSV F protein of subtype A comprising a …; assay: AM14 ELISA; F15 (pH 6, 0 mM NaCl, 9% sucrose); 2 wk 5°C
[16] = target: T1, RSV F protein of subtype A comprising a …; assay: AM14 ELISA; F6 (pH 7, 0 mM NaCl, 4.5% sucrose); 1 wk 5°C
[17] = target: T1, RSV F protein of subtype A comprising a …; assay: AM14 ELISA; F5 (pH 6, 100 mM NaCl, 9.0% sucrose); 2 wk 25°C
[18] = target: T1, RSV F protein of subtype A comprising a …; assay: AM14 ELISA; F9 (pH 8, 50 mM NaCl, 4.5% sucrose); 2 wk 5°C
[19] = target: T1, RSV F protein of subtype A comprising a …; assay: AM14 ELISA; F11 (pH 7, 50 mM NaCl, 9.0% sucrose); 2 wk 5°C
[20] = target: T1, RSV F protein of subtype A comprising a …; assay: AM14 ELISA; F18 (pH 7, 50 mM NaCl, 3% sucrose + 3% mannitol); 1 wk 25°C

AM14 Fab
Prefusion Content (%) [1]: 68%
Prefusion Content (%) [2]: 63%
Prefusion Content (%) [3]: 64%
Prefusion Content (%) [4]: 66%
Prefusion Content (%) [5]: 68%
Prefusion Content (%) [6]: 70%
Prefusion Content (%) [7]: 65%
Prefusion Content (%) [8]: 68%
Prefusion Content (%) [9]: 53%
Prefusion Content (%) [10]: 49%
Prefusion Content (%) [11]: 82%
Prefusion Content (%) [12]: 64%

B1: AM14 (trimeric prefusion specific antibody of the AM14 ELISA) (antibody, V domains shown)
VH: EVQLVESGGGVVQPGRSLRLSCAASGFSFSHYAMHWVRQAPGKGLEWVAVISYDGENTYYADSVKGRFSISRDNSKNTVSLQMNSLRPEDTALYYCARDRIVDDYYYYGMDVWGQGATVTVSS
VL: DIQMTQSPSSLSASVGDRVTITCQASQDIKKYLNWYHQKPGKVPELLMHDASNLETGVPSRFSGRGSGTDFTLTISSLQPEDIGTYYCQQYDNLPPLTFGGGTKVEIKR
notes: Antibody as used in the AM14 ELISA, detected with an HRP-labeled secondary antibody
AM14 prefusion content (%), relative to standard [13]: 76%
AM14 prefusion content (%), relative to standard [14]: 99%
AM14 prefusion content (%), relative to standard [15]: 84%
AM14 prefusion content (%), relative to standard [16]: 101%
AM14 prefusion content (%), relative to standard [17]: 98%
AM14 prefusion content (%), relative to standard [18]: 92%
AM14 prefusion content (%), relative to standard [19]: 90%
AM14 prefusion content (%), relative to standard [20]: 83%
